Data published in patent US20240182536A1 (MURAL ONCOLOGY, published 2024).

Key:
Assay in all cases: cell-based or functional assay
[1] = biological target: T1, IL-18 receptor (IL-18Rα and IL-18Rβ) (UniProt Q13478 19-541; O95256 20-599, limits assumed)
T1 sequence (looked up) 1: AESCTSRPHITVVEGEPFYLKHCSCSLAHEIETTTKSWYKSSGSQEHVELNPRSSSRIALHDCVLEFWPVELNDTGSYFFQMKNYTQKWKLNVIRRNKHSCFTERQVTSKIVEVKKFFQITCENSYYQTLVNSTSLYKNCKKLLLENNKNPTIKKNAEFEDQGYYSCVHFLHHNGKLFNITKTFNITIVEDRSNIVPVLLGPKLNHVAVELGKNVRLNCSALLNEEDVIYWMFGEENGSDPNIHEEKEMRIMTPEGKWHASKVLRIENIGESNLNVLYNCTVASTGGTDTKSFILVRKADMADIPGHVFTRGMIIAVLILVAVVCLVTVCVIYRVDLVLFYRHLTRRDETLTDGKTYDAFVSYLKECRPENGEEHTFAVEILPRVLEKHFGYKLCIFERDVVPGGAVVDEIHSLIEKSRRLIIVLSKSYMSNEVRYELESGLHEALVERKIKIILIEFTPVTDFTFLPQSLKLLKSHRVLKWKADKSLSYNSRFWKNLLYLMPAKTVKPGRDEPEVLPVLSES
T1 sequence (looked up) 2: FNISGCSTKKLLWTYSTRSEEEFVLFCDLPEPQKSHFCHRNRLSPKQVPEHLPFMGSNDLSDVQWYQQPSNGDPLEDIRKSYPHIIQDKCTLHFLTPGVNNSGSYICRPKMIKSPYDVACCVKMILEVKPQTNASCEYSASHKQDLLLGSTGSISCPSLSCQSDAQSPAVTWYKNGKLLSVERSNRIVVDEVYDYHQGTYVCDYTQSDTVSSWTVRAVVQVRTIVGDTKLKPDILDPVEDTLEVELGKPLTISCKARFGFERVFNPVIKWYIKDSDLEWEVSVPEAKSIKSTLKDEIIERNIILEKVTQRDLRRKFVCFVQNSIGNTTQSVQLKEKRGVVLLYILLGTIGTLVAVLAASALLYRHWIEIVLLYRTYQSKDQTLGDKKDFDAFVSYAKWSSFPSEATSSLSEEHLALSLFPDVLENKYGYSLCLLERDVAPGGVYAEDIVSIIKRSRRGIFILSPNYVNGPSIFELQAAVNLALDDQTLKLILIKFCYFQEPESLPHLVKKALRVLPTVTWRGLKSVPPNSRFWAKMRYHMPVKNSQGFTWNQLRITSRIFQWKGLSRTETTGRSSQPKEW

[2] = biological target: T2, IL-18 receptors on HEK-Blue IL-18 reporter cells (UniProt Q13478 19-541; O95256 20-599, limits assumed)
T2 sequence (looked up) 1: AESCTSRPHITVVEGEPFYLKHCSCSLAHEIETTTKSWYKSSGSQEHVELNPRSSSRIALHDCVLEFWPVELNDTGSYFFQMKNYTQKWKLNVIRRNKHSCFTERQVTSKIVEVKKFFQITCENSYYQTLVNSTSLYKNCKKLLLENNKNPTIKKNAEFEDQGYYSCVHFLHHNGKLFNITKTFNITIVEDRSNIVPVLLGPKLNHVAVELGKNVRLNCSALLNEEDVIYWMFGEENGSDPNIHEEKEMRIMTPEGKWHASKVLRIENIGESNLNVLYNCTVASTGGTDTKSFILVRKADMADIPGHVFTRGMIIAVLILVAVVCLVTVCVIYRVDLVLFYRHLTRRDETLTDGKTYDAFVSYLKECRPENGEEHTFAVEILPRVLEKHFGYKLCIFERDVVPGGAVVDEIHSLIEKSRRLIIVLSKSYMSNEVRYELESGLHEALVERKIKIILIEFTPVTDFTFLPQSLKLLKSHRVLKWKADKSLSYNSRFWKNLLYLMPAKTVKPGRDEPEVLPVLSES
T2 sequence (looked up) 2: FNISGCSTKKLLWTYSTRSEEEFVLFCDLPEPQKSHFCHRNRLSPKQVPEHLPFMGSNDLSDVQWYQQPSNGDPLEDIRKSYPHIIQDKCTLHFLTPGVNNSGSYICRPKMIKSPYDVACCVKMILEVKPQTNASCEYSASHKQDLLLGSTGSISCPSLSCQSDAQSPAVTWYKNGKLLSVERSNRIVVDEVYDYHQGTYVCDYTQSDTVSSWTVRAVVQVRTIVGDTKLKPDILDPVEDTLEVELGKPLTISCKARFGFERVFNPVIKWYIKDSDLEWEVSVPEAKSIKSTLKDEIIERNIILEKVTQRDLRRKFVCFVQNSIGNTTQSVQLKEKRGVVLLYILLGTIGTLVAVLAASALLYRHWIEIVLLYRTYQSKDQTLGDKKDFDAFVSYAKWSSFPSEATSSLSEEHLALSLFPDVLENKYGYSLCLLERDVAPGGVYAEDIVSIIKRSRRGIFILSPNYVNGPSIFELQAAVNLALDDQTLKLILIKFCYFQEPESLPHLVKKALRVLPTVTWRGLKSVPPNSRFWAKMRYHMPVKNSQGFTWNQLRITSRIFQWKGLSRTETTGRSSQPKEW

[3] = biological target: T3, human IL-18 binding protein (human, UniProt O95998 31-194)
T3 sequence (looked up): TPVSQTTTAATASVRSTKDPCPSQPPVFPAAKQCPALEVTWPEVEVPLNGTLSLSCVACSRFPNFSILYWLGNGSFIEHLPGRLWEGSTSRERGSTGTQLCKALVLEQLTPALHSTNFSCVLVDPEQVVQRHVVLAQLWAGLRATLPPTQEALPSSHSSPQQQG

B1: hIL18 (G3T, E6K, K53S, M60K) - KiH (Fc fusion)
chain: YFTKLKSKLSVIRNLNDQVLFIDQGNRPLFEDMTDSDMRDNAPRTIFIISMYSDSQPRGKAVTISVKSEKISTLSSENKIISFKEMNPPDNIKDTKSDIIFFQRSVPGHDNKMQFESSSYEGYFLASEKERDLFKLILKKEDELGDRSIMFTVQNED
**Q.** Which “EC50 (pM), PBMC IFN gamma assay, average” value [1] does the source give for B1 here?
**A.** 84.4 pM

**Q.** And the “EC50 (pM), PBMC IFN gamma assay, run 1” value [1]?
**A.** 90.3 pM

**Q.** And the “EC50 (pM), PBMC IFN gamma assay, run 2” value [1]?
**A.** 121 pM

**Q.** What about the “EC50 (pM), PBMC IFN gamma assay, run 3” value [1] of the same binder?
**A.** 41.6 pM

**Q.** What about the “PBMC IFN gamma EC50 relative to WT-IL18, average” value [1] of the same binder?
**A.** 0.6

**Q.** What about the “PBMC IFN gamma EC50 relative to WT-IL18, run 1” value [1] of the same binder?
**A.** 0.37

**Q.** And the “PBMC IFN gamma EC50 relative to WT-IL18, run 2” value [1]?
**A.** 1.15

**Q.** What about the “PBMC IFN gamma EC50 relative to WT-IL18, run 3” value [1] of the same binder?
**A.** 0.26

B2: yeast display IL-18 variant K53Y, S55Y (ligand)
chain: YFGKLESKLSVIRNLNDQVLFIDQGNRPLFEDMTDSDMRDNAPRTIFIISMYYDYQPRGMAVTISVKSEKISTLSSENKIISFKEMNPPDNIKDTKSDIIFFQRSVPGHDNKMQFESSSYEGYFLASEKERDLFKLILKKEDELGDRSIMFTVQNED
**Q.** Which “HEK-Blue activity, No BP, DF-10000” value [2] does the source give for B2 here?
**A.** 0.38

**Q.** And the “HEK-Blue activity, No BP, DF-100,000” value [2]?
**A.** 0.17

**Q.** What about the “HEK-Blue activity, No BP, DF-1,000,000” value [2] of the same binder?
**A.** 0.12

**Q.** What about the “HEK-Blue activity, +100 nM BP, DF-10000” value [3] of the same binder?
**A.** 0.24

**Q.** And the “HEK-Blue activity, +100 nM BP, DF-100,000” value [3]?
**A.** 0.14

**Q.** And the “HEK-Blue activity, +100 nM BP, DF-1,000,000” value [3]?
**A.** 0.21

**Q.** And the “Ratio (-BP/+BP), DF-10000” value [3]?
**A.** 1.57

**Q.** What about the “Ratio (-BP/+BP), DF-100,000” value [3] of the same binder?
**A.** 1.21

**Q.** And the “Ratio (-BP/+BP), DF-1,000,000” value [3]?
**A.** 0.57

B3: hIL18 (G3V, E6K, K53S, M60K) - KiH (Fc fusion)
chain: YFVKLKSKLSVIRNLNDQVLFIDQGNRPLFEDMTDSDMRDNAPRTIFIISMYSDSQPRGKAVTISVKSEKISTLSSENKIISFKEMNPPDNIKDTKSDIIFFQRSVPGHDNKMQFESSSYEGYFLASEKERDLFKLILKKEDELGDRSIMFTVQNED
**Q.** How did the “EC50 (pM), PBMC IFN gamma assay, average” value [1] turn out when B3 was run?
**A.** 16.8 pM

**Q.** What about the “EC50 (pM), PBMC IFN gamma assay, run 1” value [1] of the same binder?
**A.** 17.8 pM

**Q.** And the “EC50 (pM), PBMC IFN gamma assay, run 2” value [1]?
**A.** 21.6 pM

**Q.** And the “EC50 (pM), PBMC IFN gamma assay, run 3” value [1]?
**A.** 10.9 pM

**Q.** What about the “PBMC IFN gamma EC50 relative to WT-IL18, average” value [1] of the same binder?
**A.** 0.12

**Q.** And the “PBMC IFN gamma EC50 relative to WT-IL18, run 1” value [1]?
**A.** 0.07

**Q.** What about the “PBMC IFN gamma EC50 relative to WT-IL18, run 2” value [1] of the same binder?
**A.** 0.21

**Q.** And the “PBMC IFN gamma EC50 relative to WT-IL18, run 3” value [1]?
**A.** 0.07

B4: yeast display IL-18 variant T34I, S36V, D40I, N41M, K53G, S55Y (ligand)
chain: YFGKLESKLSVIRNLNDQVLFIDQGNRPLFEDMIDVDMRIMAPRTIFIISMYGDYQPRGMAVTISVKSEKISTLSSENKIISFKEMNPPDNIKDTKSDIIFFQRSVPGHDNKMQFESSSYEGYFLASEKERDLFKLILKKEDELGDRSIMFTVQNED
**Q.** B4 was tested. Which “HEK-Blue activity, No BP, DF-10000” value [2] did it give?
**A.** 0.3

**Q.** And the “HEK-Blue activity, No BP, DF-100,000” value [2]?
**A.** 0.11

**Q.** And the “HEK-Blue activity, No BP, DF-1,000,000” value [2]?
**A.** 0.14

**Q.** What about the “HEK-Blue activity, +100 nM BP, DF-10000” value [3] of the same binder?
**A.** 0.21

**Q.** What about the “HEK-Blue activity, +100 nM BP, DF-100,000” value [3] of the same binder?
**A.** 0.1

**Q.** And the “HEK-Blue activity, +100 nM BP, DF-1,000,000” value [3]?
**A.** 0.09

**Q.** And the “Ratio (-BP/+BP), DF-10000” value [3]?
**A.** 1.46

**Q.** What about the “Ratio (-BP/+BP), DF-100,000” value [3] of the same binder?
**A.** 1.11

**Q.** And the “Ratio (-BP/+BP), DF-1,000,000” value [3]?
**A.** 1.52

B5: hIL18 (G3T, E6K, K53A, M60K) - KiH (Fc fusion)
chain: YFTKLKSKLSVIRNLNDQVLFIDQGNRPLFEDMTDSDMRDNAPRTIFIISMYADSQPRGKAVTISVKSEKISTLSSENKIISFKEMNPPDNIKDTKSDIIFFQRSVPGHDNKMQFESSSYEGYFLASEKERDLFKLILKKEDELGDRSIMFTVQNED
**Q.** How did the “EC50 (pM), PBMC IFN gamma assay, average” value [1] turn out when B5 was run?
**A.** 16 pM

**Q.** What about the “EC50 (pM), PBMC IFN gamma assay, run 1” value [1] of the same binder?
**A.** 13.3 pM

**Q.** And the “EC50 (pM), PBMC IFN gamma assay, run 2” value [1]?
**A.** 14 pM

**Q.** What about the “EC50 (pM), PBMC IFN gamma assay, run 3” value [1] of the same binder?
**A.** 20.7 pM

**Q.** And the “PBMC IFN gamma EC50 relative to WT-IL18, average” value [1]?
**A.** 0.11

**Q.** What about the “PBMC IFN gamma EC50 relative to WT-IL18, run 1” value [1] of the same binder?
**A.** 0.06

**Q.** What about the “PBMC IFN gamma EC50 relative to WT-IL18, run 2” value [1] of the same binder?
**A.** 0.13

**Q.** And the “PBMC IFN gamma EC50 relative to WT-IL18, run 3” value [1]?
**A.** 0.13

B6: hIL18 (G3V, K53A, M60K) - KiH (Fc fusion)
chain: YFVKLESKLSVIRNLNDQVLFIDQGNRPLFEDMTDSDMRDNAPRTIFIISMYADSQPRGKAVTISVKSEKISTLSSENKIISFKEMNPPDNIKDTKSDIIFFQRSVPGHDNKMQFESSSYEGYFLASEKERDLFKLILKKEDELGDRSIMFTVQNED
**Q.** Which results are given for B6?
**A.** EC50 (pM), PBMC IFN gamma assay, average [1]: 60.6 pM; EC50 (pM), PBMC IFN gamma assay, run 1 [1]: 47.3 pM; EC50 (pM), PBMC IFN gamma assay, run 2 [1]: 75 pM; EC50 (pM), PBMC IFN gamma assay, run 3 [1]: 59.4 pM; PBMC IFN gamma EC50 relative to WT-IL18, average [1]: 0.43; PBMC IFN gamma EC50 relative to WT-IL18, run 1 [1]: 0.2; PBMC IFN gamma EC50 relative to WT-IL18, run 2 [1]: 0.71; PBMC IFN gamma EC50 relative to WT-IL18, run 3 [1]: 0.37
